# Source: PMC6355197
# Molecular target: afTMEM16 scramblase from Aspergillus fumigatus (Aspergillus fumigatus)
# Assay: cryo-EM structure; afTMEM16 in MSP1E3 nanodiscs of 3 POPE:1 POPG; three samples: 0.5 mM Ca2+, Ca2+-free (5 mM EDTA), 0.5 mM Ca2+ with 5 mole% C24:0 ceramide; buffer D (150 mM KCl, 50 mM Tris pH 8.0); maps refined in C1 and C2
substance,measurement,value
afTMEM16 scramblase from Aspergillus fumigatus (natural protein),stoichiometry N,2
